The text below walks through data of article PMC3518436.

The target in the experiment is beclin 1 (UniProt O88597). Kind of experiment: anti-BCL2 IP, beclin 1 blot. Particulars: sites T69,S70,S84.

For the substance “BCL2 (from UniProt P10417) BCL2 AAA muscle, exercised”, the “binding against the reference” value (reference: wild-type muscle, exercised) is given as “stronger”. On to “BCL2 (from UniProt P10417) BCL2 AAA MEFs, starved”, for which, under “reference: wild-type MEFs, starved”, the “binding against the reference” value is “stronger”.
